Among the data in article PMC5604497 are ß-galactosidase activity values, retold here.

The assay concerns the target leucine zipper domain of the transcription factor GCN4 from Saccharomyces cerevisiae (fusions with T18 and T25) (Saccharomyces cerevisiae). Kind of assay: two-hybrid; bacterial two-hybrid (BACTH), T18 and T25 fusions co-overexpressed in adenylate-cyclase-deficient E. coli BTH-101, LB pH 7, aerobic, OD600 ~0.6; ß-galactosidase activity (ONPG) in Miller units, three biological replicates; background with empty vectors about 400 MU.

For the substance “leucine zipper domain of the transcription factor GCN4 from Saccharomyces cerevisiae (fusions with T18 and T25) (domain or fragment)”, the ß-galactosidase activity stood at 1200 MU.
